Test results reported in patent US20230097015A1 (SEOUL NATIONAL UNIVERSITY R AND DB FOUNDATION, published 2023).

Columns and labels:
[1] = target: T1, TycB COM^A-CHS
T1 chain: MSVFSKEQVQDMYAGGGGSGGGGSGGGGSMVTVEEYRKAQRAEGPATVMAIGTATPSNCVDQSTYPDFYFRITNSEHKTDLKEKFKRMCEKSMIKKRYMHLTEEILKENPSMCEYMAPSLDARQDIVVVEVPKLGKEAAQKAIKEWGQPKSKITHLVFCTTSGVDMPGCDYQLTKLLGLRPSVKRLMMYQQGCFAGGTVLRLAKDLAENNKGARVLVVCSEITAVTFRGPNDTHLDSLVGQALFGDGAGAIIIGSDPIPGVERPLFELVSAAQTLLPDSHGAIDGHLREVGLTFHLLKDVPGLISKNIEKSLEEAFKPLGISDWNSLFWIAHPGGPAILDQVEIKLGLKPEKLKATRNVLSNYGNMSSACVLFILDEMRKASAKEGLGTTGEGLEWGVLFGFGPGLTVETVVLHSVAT

[2] = target: T2, MlnC COM^A-CHS
T2 chain: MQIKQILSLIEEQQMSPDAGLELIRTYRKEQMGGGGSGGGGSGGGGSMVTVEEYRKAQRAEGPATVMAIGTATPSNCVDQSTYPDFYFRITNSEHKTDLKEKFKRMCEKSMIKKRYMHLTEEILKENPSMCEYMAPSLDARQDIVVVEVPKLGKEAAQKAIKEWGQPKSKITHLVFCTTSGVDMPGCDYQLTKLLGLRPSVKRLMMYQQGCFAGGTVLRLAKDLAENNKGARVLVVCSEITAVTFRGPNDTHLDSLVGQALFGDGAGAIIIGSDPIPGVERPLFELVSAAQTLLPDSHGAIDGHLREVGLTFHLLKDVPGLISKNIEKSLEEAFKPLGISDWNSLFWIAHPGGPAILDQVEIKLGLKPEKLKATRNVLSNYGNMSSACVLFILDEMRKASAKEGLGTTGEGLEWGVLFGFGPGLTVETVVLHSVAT

B1: 4CL-TycA COM^D (protein)
chain: MAPQEQAVSQVMEKQSNNNNSDVIFRSKLPDIYIPNHLSLHDYIFQNISEFATKPCLINGPTGHVYTYSDVHVISRQIAANFHKLGVNQNDVVMLLLPNCPEFVLSFLAASFRGATATAANPFFTPAEIAKQAKASNTKLIITEARYVDKIKPLQNDDGVVIVCIDDNESVPIPEGCLRFTELTQSTTEASEVIDSVEISPDDVVALPYSSGTTGLPKGVMLTHKGLVTSVAQQVDGENPNLYFHSDDVILCVLPMFHIYALNSIMLCGLRVGAAILIMPKFEINLLLELIQRCKVTVAPMVPPIVLAIAKSSETEKYDLSSIRVVKSGAAPLGKELEDAVNAKFPNAKLGQGYGMTEAGPVLAMSLGFAKEPFPVKSGACGTVVRNAEMKIVDPDTGDSLSRNQPGEICIRGHQIMKGYLNNPAATAETIDKDGWLHTGDIGLIDDDDELFIVDRLKELIKYKGFQVAPAELEALLIGHPDITDVAVVAMKEEAAGEVPVAFVVKSKDSELSEDDVKQFVSKQVVFYKRINKVFFTESIPKAPSGKILRKDLRAKLANGLGGGGSGGGGSERTPSDFSVKGLQMEEMDDIFELLANTLR
**Q.** With B1 as the protein, how does the “production of naringenin (UPLC-qTOF-HR-MS), two-step in vitro reaction” value [1] read?
**A.** The value was “the productivity by the metabolons with the remaining four pairs showed improvement”.

B2: 4CL-MlnB COM^D (protein)
chain: MAPQEQAVSQVMEKQSNNNNSDVIFRSKLPDIYIPNHLSLHDYIFQNISEFATKPCLINGPTGHVYTYSDVHVISRQIAANFHKLGVNQNDVVMLLLPNCPEFVLSFLAASFRGATATAANPFFTPAEIAKQAKASNTKLIITEARYVDKIKPLQNDDGVVIVCIDDNESVPIPEGCLRFTELTQSTTEASEVIDSVEISPDDVVALPYSSGTTGLPKGVMLTHKGLVTSVAQQVDGENPNLYFHSDDVILCVLPMFHIYALNSIMLCGLRVGAAILIMPKFEINLLLELIQRCKVTVAPMVPPIVLAIAKSSETEKYDLSSIRVVKSGAAPLGKELEDAVNAKFPNAKLGQGYGMTEAGPVLAMSLGFAKEPFPVKSGACGTVVRNAEMKIVDPDTGDSLSRNQPGEICIRGHQIMKGYLNNPAATAETIDKDGWLHTGDIGLIDDDDELFIVDRLKELIKYKGFQVAPAELEALLIGHPDITDVAVVAMKEEAAGEVPVAFVVKSKDSELSEDDVKQFVSKQVVFYKRINKVFFTESIPKAPSGKILRKDLRAKLANGLGGGGSGGGGSKNEDQEILFLLEQLKNGELSADQVYQLLEGK
**Q.** Which “production of naringenin (UPLC-qTOF-HR-MS), two-step in vitro reaction” value [2] does the source give for B2 here?
**A.** The value was “the productivity by the metabolons with the remaining four pairs showed improvement”.

**Q.** What about the “production of naringenin (UPLC-qTOF-HR-MS), two-step in vitro reaction, against free enzymes” value [2] of the same protein?
**A.** Its value is “improved by 2 fold or more compared to that by free enzymes (Free) after 20 minutes of the reaction”.
